Data taken from publication PMC9478404, “Cyclin-dependent kinase-mediated phosphorylation and the negative regulatory domain of transcription factor B-Myb modulate its DNA binding” (The Journal of Biological Chemistry, 2022).

Molecular target: T1, B-Myb negative regulatory domain NRD^440–600 (human, UniProt P10244-1 440-600)
T1 construct: human B-Myb (MYBL2), negative regulatory domain, amino acids 440 to 600; source: E. coli, purified (Glutathione Sepharose, Q-sepharose, TEV cleavage, Superdex-75); not shown: GST, N-terminal, cleaved
T1 sequence (P10244 440-600): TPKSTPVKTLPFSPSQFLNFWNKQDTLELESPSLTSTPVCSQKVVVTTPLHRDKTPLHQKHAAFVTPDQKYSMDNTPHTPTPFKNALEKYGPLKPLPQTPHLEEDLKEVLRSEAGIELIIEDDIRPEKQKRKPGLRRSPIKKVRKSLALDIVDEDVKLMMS
Test: ITC; DBD (500 μM) titrated into NRD (50 μM) at 19 °C; 150 mM NaCl, 20 mM Tris, 1 mM BME (pH 8); MicroCal VP-ITC; mean of three technical replicates
Settings: both partners purified

Kd: 4.5 µM
B1: B-Myb DNA-binding domain (B-Myb^34–183) (domain or fragment)
chain: not shown
notes: Limits 34-183 are printed for 'the DBD alone' in the FP experiment; also called DBD; B-Myb DBD; source: E. coli, purified (Glutathione Sepharose, Q-sepharose, TEV cleavage, Superdex-75); not shown: GST, N-terminal, cleaved
